Changes are numbered by the printed parent chain.
B1: mAb076 antibody Fab fragment with C-terminal histidine tag (Fab, V domains shown)
VH: EVQLVESGGGLVQPGGSLRLSCAASGFTFSDYGIHWVRQAPGKGLEWIGWINPNRGSTNYAQKFQGRVTISRDNSKNTLYLQLNSLRAEDTAVYYCARDYGYTWYFDVWGQGTLVTVSS
VL: DIQLTQSPSSLSASVGDRVTITCRASQDISSVLAWYQQKPGKAPKLLIYAASSLQSGVPSRFSGSGSGTDFTLTISSLQPEDFATYYCQQRDAWPLTFGQGTKVEIK
B2: mAb077 antibody Fab fragment with C-terminal histidine tag (Fab, V domains shown)
VH: B1 VH with D31G, N59K, Y100P
VL: B1 VL with V32D, S53T, L96P

Molecular target: T1, human CD27-HisFc fusion protein (human, UniProt P26842 20-192)
T1 construct: also called CD27-HisFc (Sino Biological #10039-H03H); not shown: His tag and Fc
T1 sequence (looked up): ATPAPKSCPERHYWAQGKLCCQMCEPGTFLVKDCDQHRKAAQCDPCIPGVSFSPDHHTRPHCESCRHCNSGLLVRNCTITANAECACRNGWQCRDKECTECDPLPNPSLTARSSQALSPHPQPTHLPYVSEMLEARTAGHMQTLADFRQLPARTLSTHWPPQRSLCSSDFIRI
Assay: BLI (Octet RED96), CD27-HisFc captured on AHC sensor, Fab in solution
Description: A histidine tag was added to each unique sequence of the antibody Fab fragment at the C-terminal, and the antibody Fab fragment was overexpressed in an E. coli expression system, and then purified by using Ni-NTA affinity resin. […] The collected data was processed by Data Acquisition 7.1 software and fitted to a 1:1 combined Langmuir model curve. The mAb076 and mAb077 antibodies were the two antibodies with optimal binding and were selected for further analysis and development experiments.

Binder | binding result
B1 | binds
B2 | binds
